Literature values in patent publication US20090048308A1, “VLA-4 Antagonists” (priority 2005, published 2009).

Biological target: T1, VLA-4 (Homo sapiens, UniProt P13612)
T1 construct: host or cells: VLA-4-bearing blood cells of trial subjects (inferred)
Conditions: early clinical trials

receptor occupancy: > 80%
Substance: natalizumab: humanized monoclonal antibody against α4 (Tysabri®, Elan/Biogen)
